The results in this text go back to patent US20160166634A1 (Novartis, published 2016).

The target in the test is human APJ receptor (hAPJ) (human) (UniProt P35414). In words: cell-based or functional assay.
Chain of human APJ receptor (hAPJ) (human) (P35414 whole entry): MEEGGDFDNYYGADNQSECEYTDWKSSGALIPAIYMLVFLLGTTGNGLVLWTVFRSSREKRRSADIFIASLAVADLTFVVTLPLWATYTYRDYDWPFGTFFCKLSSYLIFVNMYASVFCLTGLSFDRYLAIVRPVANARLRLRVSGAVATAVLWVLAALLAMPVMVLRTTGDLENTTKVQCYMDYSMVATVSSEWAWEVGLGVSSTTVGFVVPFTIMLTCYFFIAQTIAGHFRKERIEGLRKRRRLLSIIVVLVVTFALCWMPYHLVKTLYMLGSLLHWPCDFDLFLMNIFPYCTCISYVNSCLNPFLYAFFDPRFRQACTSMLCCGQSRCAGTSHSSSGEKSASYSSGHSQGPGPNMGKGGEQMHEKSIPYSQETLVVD
In turn, “Example 1: Albumin-MPA-O2Oc-O2Oc-O2Oc-O2Oc-Q-R-P-R-L-C*-H-F-G-P-Nle-C*-f-OH (from UniProt P02768 25-609)” came in with a hAPJ Ca2+ Flux EC50 of 0.0472 µM. Then “Example 3: Albumin-MPA-NHCH2CH2CH2-OCH2CH2OCH2CH2O-CH2CH2CH2NH-C(O)CH2CH2C=O-A-R-P-R-L-S-H-K-G-P-Nle-P-F-OH (from UniProt P02768 25-609)”, with 0.052 µM; and “Example 2: Albumin-TPA-O2Oc-O2Oc-O2Oc-O2Oc-Q-R-P-R-L-C*-H-F-G-P-Nle-C*-f-OH (from UniProt P02768 25-609)”, with 0.0924 µM.
